Data published in patent US7351553B2, “BK beta subunits of Slo family potassium channels” (Icagen, Inc., priority 1999, dated 2008).

Experiments:
Slo-1 = target: T1, Slo-1 (Homo sapiens, UniProt Q12791); assay: Whole-cell voltage-clamp of membrane currents in HEK293 cells expressing Slo-1 alone; type: cell-based; conditions: 250 ms depolarizing steps from holding potential -80 mV; for inhibition (block) of membrane currents: CTX 100 nM
T1 construct: expressed in transfected cells; host or cells: HEK293
Procedure: (§1) FIG. 6. Slo-1/BKB3 forms BK type II-like charybdotoxin-(CTX) insensitive channels. Slo-1 (A) or Slo-1+BK beta 3 (B) were expressed in HEK293 cells and membrane currents measured using the whole-cell voltage-clamp technique. […]. In contrast, membrane currents in cells co-expressing Slo-1 and BK beta 3 were TEA (5 mM) sensitive but CTX (100 nM) insensitive (FIG. 6B). Similar recordings were made from 4 cells expressing Slo-1 alone and 6 cells co-expressing Slo-1/BKB3. Scale bars represent InA and 200 ms.

Slo-1/BKB3 = target: T2, Slo-1/BKB3 (Homo sapiens, UniProt Q12791); assay: Whole-cell voltage-clamp of membrane currents in HEK293 cells co-expressing Slo-1 and BK beta 3; type: cell-based; conditions: for sensitivity (block) of membrane currents: CTX 100 nM
T2 construct: expressed in transfected cells; host or cells: HEK293
Procedure: as §1

T2 sequence (Q12791 whole entry): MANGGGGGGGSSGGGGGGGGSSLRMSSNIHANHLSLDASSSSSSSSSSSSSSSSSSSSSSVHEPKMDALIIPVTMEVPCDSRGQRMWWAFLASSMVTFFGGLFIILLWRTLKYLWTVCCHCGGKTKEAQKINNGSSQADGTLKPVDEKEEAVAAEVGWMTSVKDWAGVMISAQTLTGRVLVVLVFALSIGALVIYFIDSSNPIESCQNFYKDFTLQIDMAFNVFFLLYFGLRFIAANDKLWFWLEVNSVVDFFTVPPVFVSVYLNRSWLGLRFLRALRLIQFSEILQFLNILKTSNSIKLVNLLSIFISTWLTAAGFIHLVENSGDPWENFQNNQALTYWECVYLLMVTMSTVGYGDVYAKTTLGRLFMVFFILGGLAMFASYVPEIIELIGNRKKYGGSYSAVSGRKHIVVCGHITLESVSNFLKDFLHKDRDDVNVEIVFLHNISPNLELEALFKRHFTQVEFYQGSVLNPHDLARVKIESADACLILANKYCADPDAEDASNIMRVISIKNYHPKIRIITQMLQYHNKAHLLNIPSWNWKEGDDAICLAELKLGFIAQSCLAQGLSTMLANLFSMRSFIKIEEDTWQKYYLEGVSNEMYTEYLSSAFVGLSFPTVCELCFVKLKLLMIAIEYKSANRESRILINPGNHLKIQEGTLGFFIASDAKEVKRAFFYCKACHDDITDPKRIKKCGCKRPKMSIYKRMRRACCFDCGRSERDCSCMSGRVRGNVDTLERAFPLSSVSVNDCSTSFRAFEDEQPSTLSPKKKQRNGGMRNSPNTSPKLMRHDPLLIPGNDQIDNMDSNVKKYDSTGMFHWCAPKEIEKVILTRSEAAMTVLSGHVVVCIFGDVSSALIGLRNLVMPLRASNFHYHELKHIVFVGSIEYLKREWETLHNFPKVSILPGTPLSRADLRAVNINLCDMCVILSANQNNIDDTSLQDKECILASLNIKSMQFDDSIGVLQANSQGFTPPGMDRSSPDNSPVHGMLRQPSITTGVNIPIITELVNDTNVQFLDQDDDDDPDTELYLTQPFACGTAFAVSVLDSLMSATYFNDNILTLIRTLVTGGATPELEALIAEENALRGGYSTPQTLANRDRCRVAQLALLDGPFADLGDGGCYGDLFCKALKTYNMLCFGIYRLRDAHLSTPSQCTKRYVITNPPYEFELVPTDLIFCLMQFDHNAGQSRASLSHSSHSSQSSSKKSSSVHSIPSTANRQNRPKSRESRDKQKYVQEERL
T2 sequence (Q86W47 whole entry partner): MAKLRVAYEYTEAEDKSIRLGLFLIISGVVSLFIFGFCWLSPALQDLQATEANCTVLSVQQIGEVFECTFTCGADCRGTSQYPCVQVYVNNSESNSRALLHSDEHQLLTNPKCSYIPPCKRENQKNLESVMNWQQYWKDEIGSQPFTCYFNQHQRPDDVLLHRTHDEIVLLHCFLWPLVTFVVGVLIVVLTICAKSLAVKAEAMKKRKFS
T1 sequence (Q12791 whole entry): as the sequence (Q12791 whole entry) above

Row | Molecule | inhibition (block) of membrane currents (Slo-1) | inhibition (block) of membrane currents (Slo-1; listed as charybdotoxin) | sensitivity (block) of membrane currents (Slo-1/BKB3) | sensitivity (block) of membrane currents (Slo-1/BKB3; listed as charybdotoxin) | inhibition of membrane currents (Slo-1; TEA 5 mM) | sensitivity of membrane currents (Slo-1/BKB3; TEA 5 mM)
1 | charybdotoxin [CTX] | strongly inhibited | almost completely blocked | insensitive | virtually unblocked | – | –
2 | CC[N+](CC)(CC)CC [TEA] | – | – | – | – | strongly inhibited | sensitive
